T1: hsGLUT4 Y502A (human, UniProt P14672 1-509)
T1 sequence: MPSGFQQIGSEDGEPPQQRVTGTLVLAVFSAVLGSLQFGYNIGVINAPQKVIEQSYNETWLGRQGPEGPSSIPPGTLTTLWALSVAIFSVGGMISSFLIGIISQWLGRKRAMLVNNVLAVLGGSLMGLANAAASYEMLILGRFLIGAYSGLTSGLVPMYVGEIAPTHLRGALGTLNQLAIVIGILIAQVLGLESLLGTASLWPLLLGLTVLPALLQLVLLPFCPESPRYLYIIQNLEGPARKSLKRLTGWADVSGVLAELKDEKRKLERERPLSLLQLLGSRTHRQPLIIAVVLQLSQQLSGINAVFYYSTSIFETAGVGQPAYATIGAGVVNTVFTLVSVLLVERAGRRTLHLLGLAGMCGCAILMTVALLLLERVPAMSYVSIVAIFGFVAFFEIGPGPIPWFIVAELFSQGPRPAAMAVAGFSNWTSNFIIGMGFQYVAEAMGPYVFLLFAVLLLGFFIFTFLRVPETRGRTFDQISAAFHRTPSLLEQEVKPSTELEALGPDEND

T2: hsGLUT4 G356A (human, UniProt P14672 1-509)
T2 sequence: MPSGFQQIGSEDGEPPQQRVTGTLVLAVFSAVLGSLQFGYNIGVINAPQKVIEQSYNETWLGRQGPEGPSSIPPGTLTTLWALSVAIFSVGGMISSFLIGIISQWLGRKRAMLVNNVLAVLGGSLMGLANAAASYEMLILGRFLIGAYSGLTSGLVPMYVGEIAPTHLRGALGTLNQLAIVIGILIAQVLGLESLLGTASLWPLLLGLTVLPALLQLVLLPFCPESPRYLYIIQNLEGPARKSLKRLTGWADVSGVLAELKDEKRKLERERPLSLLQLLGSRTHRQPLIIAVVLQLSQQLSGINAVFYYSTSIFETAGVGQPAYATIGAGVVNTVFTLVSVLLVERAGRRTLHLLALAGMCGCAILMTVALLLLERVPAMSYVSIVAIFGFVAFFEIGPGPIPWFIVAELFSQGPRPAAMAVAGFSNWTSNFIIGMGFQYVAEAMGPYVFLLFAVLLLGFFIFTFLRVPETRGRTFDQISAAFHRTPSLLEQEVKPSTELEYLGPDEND

T3: hsGLUT4 L155A (human, UniProt P14672 1-509)
T3 sequence: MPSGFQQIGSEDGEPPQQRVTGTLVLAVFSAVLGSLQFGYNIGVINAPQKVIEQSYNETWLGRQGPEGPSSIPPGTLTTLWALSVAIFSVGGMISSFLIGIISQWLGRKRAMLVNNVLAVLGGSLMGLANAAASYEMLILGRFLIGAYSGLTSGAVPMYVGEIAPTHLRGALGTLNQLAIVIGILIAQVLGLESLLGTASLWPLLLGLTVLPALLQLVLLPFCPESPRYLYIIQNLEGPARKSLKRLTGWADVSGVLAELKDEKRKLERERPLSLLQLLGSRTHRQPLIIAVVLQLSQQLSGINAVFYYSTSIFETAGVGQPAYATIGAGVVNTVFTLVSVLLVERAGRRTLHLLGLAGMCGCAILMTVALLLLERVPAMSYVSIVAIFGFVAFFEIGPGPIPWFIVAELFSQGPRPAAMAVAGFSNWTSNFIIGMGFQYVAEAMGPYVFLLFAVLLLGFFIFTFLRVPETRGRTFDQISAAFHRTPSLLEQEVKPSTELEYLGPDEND

T4: hsGLUT4 Y309A (human, UniProt P14672 1-509)
T4 sequence: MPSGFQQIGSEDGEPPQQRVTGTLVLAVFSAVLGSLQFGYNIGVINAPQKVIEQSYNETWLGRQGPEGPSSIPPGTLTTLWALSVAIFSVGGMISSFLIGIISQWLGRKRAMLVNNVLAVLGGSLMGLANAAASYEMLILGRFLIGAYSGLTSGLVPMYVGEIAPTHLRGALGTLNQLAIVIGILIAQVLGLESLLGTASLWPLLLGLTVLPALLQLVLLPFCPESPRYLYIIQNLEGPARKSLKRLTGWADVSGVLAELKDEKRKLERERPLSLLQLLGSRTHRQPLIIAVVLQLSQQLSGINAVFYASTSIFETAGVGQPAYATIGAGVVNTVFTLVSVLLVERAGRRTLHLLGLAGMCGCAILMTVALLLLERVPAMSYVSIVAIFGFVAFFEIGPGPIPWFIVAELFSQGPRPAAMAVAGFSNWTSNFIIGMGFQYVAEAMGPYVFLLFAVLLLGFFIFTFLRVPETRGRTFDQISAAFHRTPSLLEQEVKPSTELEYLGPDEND


How the values were obtained:
Assay in all cases: flow cytometry, alanine-scan library in HEK-293T
hsGLUT4 Y502A = target: T1, hsGLUT4 Y502A
Method in brief: (§1)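 HEK-293T cells expressing individual GLUT4 alanine mutants were stained 48 h post-transfection with anti-GLUT4 scFv MAbs (2 μg/ml), then biotinylated secondary and streptavidin-PerCP, and read by high-throughput flow cytometry. Where used, cytochalasin B (10 uM final) was given for 30 min before and during primary antibody staining.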

hsGLUT4 G356A = target: T2, hsGLUT4 G356A
Method in brief: as §1

hsGLUT4 L155A = target: T3, hsGLUT4 L155A
Method in brief: as §1

hsGLUT4 Y309A = target: T4, hsGLUT4 Y309A
Method in brief: as §1

Row | Molecule | % of binding to wild type GLUT4 (hsGLUT4 Y502A) | % of binding to wild type GLUT4 (hsGLUT4 G356A) | % of binding to wild type GLUT4 (hsGLUT4 L155A) | % of binding to wild type GLUT4 (hsGLUT4 Y309A)
1 | 1F8 (antibody) | 51% | 90% | 91% | 75%
2 | AB108 (Fc fusion, Bivalent scFv-Fc; also called MAb AB108; not shown: Fc fragment of human IgG1, cloned in frame with the scFv) scFv: ALTQPSSVSANLGGTVKITCSGSSGSYGWYQQKAPGSAPVTLIYRNDKRPSDIPSRFSGSESGSTGTLTITGVQAEDEAVYFCGGYDSSAGYAAFGAGTTLTVLGQSSRSSGGGGSSGGGGSAVTLDESGGGLQTPGGALSLVCKASGFTFSSHGMGWVRQAPGKGLEWVGSISTGRYTFYAPAVKGRATISRDNGQSTLRLQLNNLRAEDTGTYYCTKCAGLNGCGGGEIDAWGHGTEVIVSS | 94% | 19% | 42% | 91%
3 | AB101 (scFv, Chicken-derived clone used as a control; the four lead clones were tested as scFv-human IgG1 Fc; also called MAb AB101) scFv: ALTQPSSVSANPGETVKITCSGSSNSYGWYQQKSPGSAPVTVIYYNDKRPSDIPSRFSGSKSDSTHTLTITGVRAEDEAVYFCGSYDSTYVGIFGAGTTLTVLGQSSRSSGGGGSSGGGGSAVTLDESGGGLQTPGGTLSLVCKASGFTFSSNAMGWVRQAPGKGLEWVAGISSDGRYTKYGSAVKGRATISRDNGQSTVRLQLNNLRAEDTGTYFCAKAFGNNYRRIYAGQIDAWGHGTEVIVSS | 4% | 46% | 88% | 64%
4 | AB111 (Fc fusion, Bivalent scFv-Fc; also called MAb AB111; not shown: Fc fragment of human IgG1, cloned in frame with the scFv) scFv: ALTQPSSVSANPGETVKITCSGSGSWYGWFQQKSPGSAPVTVIYSNDKRPSDIPSRFSGSKSGSTSTLTITGVQVEDEAVYYCGNWDIFGAGTTLTVLGQSSRSSGGGGSSGGGGSAVTLDESGGGLQTPGGALSLVCKASGFTFSSHGMGWVRQAPGKGLEWVASISTGRYTFYAPAVKGRATISRDNGQSTVRLQLNNLRAEDTATYYCTKCAGLNGCGGGEIDAWGHGTEVIVSS | 169% | 137% | 57% | 110%

— patent US20210238276A1 (INTEGRAL MOLECULAR, published 2021)
